Laboratory results taken from patent publication US20250051428A1 (UNIVERSITY OF BRITISH COLUMBIA, published 2025).
Values belong to the binder of their own block, whether it stands above or below them.

Assays:
[1] = target: T1, commercially-prepared stable A-beta42 Oligomers (SynAging SAS) (human); test: ProteOn biosensor, antibody captured with anti-mouse IgG or amine-coupled on GLM chip, AbO 12.3 nM to 1 µM; hybridoma-purified antibody
T1 construct: Bought oligomer preparation; also called AbO; SynAging AbO
Description: (§1) AbO 3 fold-dilutions were used: 1 μM, 0.33 μM, 0.11 μM, 37 nM, 12.3 nM. Assay buffer was PBS-E+Tween 20+2 mg/ml BSA.

[2] = target: T1, commercially-prepared stable A-beta42 …; test: ProteOn biosensor, antibody captured with anti-mouse IgG or amine-coupled on GLM chip, AbO 12.3 nM to 1 µM; upper end of the printed range 16.2-19.5 nM; test or coupling not stated
Description: as §1

[3] = target: T2, cyclo(CGHHQKG) conjugated to BSA (also: conjugated to BSA, site not given here); test: ProteOn biosensor, antibody amine-coupled to GLH chip, cyclo-BSA 111 pM to 9 nM
T2 construct: also called Cyclic Peptide; cyclopeptide
T2 peptide: cyclo(CGHHQKG)
Description: Cyclo-BSA 3-fold dilutions were used from 9 nM to 111 pM. Assay buffer was PBS-E+0.05% Tween+10 mg/ml BSA.

[4] = target: T1, commercially-prepared stable A-beta42 …; test: ProteOn biosensor, antibody captured with anti-mouse IgG or amine-coupled on GLM chip, AbO 12.3 nM to 1 µM; lower end of the printed range 16.2-19.5 nM; test or coupling not stated
Description: as §1

T1 sequence (peptide, as listed by the source): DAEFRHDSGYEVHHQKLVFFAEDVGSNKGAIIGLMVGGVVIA

Kd [1]: ~26.9 nM
B1: 301-17 (hybridoma-purified IgG3) (antibody, V domains shown)
VH: QVQLQQPGAELVKPGASVKMSCKASGYSFTSYWINWVKQRPGQGLEWIGDVHPGRGVSTYNAKFKSKATLTLDTSSSTAYMQLSSLTSEDSAVYYCSRSHGNTYWFFDVWGAGTTVTVSS
VL: DVLMTQTPLSLPVSLGDQASISCRSSQSIVHSNGNTYLEWYLQKPGQSPKLLIYKVSNRFSGVPDRFSGSGSGTDFTLKISRVEAEDLGVYYCFQGSHVPFTFGSGTKLEIK
notes: Mouse hybridoma monoclonal, IgG3

Kd [2]: 16.2 to 19.5 nM | Kd [3]: ~0.017 nM | Kd [4]: 16.2 to 19.5 nM
B2: Recombinant 301-17 IgG2a (antibody)
heavy: QVQLQQPGAELVKPGASVKMSCKASGYSFTSYWINWVKQRPGQGLEWIGDVHPGRGVSTYNAKFKSKATLTLDTSSSTAYMQLSSLTSEDSAVYYCSRSHGNTYWFFDVWGAGTTVTVSSAKTTAPSVYPLAPVCGDTTGSSVTLGCLVKGYFPEPVTLTWNSGSLSSGVHTFPAVLQSDLYTLSSSVTVTSSTWPSQSITCNVAHPASSTKVDKKIEPRGPTIKPCPPCKCPAPNLLGGPSVFIFPPKIKDVLMISLSPIVTCVVVDVSEDDPDVQISWFVNNVEVHTAQTQTHREDYNSTLRVVSALPIQHQDWMSGKEFKCKVNNKDLPAPIERTISKPKGSVRAPQVYVLPPPEEEMTKKQVTLTCMVTDFMPEDIYVEWTNNGKTELNYKNTEPVLDSDGSYFMYSKLRVEKKNWVERNSYSCSVVHEGLHNHHTTKSFSRTPGK
light: DVLMTQTPLSLPVSLGDQASISCRSSQSIVHSNGNTYLEWYLQKPGQSPKLLIYKVSNRFSGVPDRFSGSGSGTDFTLKISRVEAEDLGVYYCFQGSHVPFTFGSGTKLEIKRADAAPTVSIFPPSSEQLTSGGASVVCFLNNFYPKDINVKWKIDGSERQNGVLNSWTDQDSKDSTYSMSSTLTLTKDEYERHNSYTCEATHKTSTSPIVKSFNRNEC
